± gives the half width of the 95% confidence interval.
What was measured:
[1] = folding stability dG unfold from chymotrypsin proteolysis; higher = more stable
Procedure: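 Folding stability of de novo designed mini-proteins (<80 aa, no Cys; designed by TrROS, TrMRF, ProteinMPNN and the joint model) was measured by cDNA display proteolysis with trypsin and chymotrypsin. Each protease was used at 11 concentrations in a threefold dilution series plus a no-protease condition. K50 was inferred by Bayesian fitting of sequencing counts, and dG unfold was derived against a sequence-predicted unfolded-state K50 (Tsuboyama et al. method). Sequences shown include variable-length N-terminal GS-type padding (SAGGSAGG...) inside a display construct carrying a PA tag. Rows were kept only if the AF2 dimer inter-PAE was >15, to exclude likely homo-oligomers.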

[2] = folding stability dG unfold (combined trypsin and chymotrypsin); higher = more stable
Method in brief: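 Designed mini-proteins with no cysteine and under 80 residues were kept only if AlphaFold2 dimer inter-PAE was above 15. In a PA-tagged cDNA display construct, they were digested with trypsin and chymotrypsin and then sequenced. K50 was inferred by Bayesian fitting of counts, and unfolding free energy was derived per protease or combined against a sequence-predicted unfolded-state K50 and a shared folded-state K50.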

## SAGGSAGGSAGGMILTGDRAEILARLEAEGLGVAEEETVEEGDAPVTPVRVEVPPGAAGSAGGSAGGSAGGS [r10_885_JUSTAS]
[1]
  folding stability dG unfold: 0.972 ± 0.028 kcal/mol
[2]
  folding stability dG unfold: 0.561 ± 0.11 kcal/mol

## SAGGSAGGSAGGMITVNPRGGTATFTTSSGETTTVPASLADQVRVDTGLPDAPVFTAPPASAGGSAGGSAGG [r7_235_JUSTAS]
[1]
  folding stability dG unfold: 0.183 ± 0.23 kcal/mol
[2]
  folding stability dG unfold: < -1 kcal/mol

## SAGGSAGGSAGGMKVTVEYPDALSVEVEPDSATTTYPNGSRIVVEAPGVTTYDPLPPERSSAGGSAGGSAGG [r7_30_JUSTAS]
[1]
  folding stability dG unfold: 0.117 ± 0.046 kcal/mol
[2]
  folding stability dG unfold: -0.39 ± 0.24 kcal/mol

## SAGGSAGGSAGGMLPFEVLEVTTSTGKGKTTRTVLAREPEGPEVVLTFSPASPEEIERLLSAGGSAGGSAGG [r7_365_JUSTAS]
[1]
  folding stability dG unfold: 0.735 ± 0.13 kcal/mol
[2]
  folding stability dG unfold: 0.224 ± 0.13 kcal/mol

## SAGGSAGGSAGGMNTPIVVETEDLPSSRPVEEVKAEAAPKGYTEVKAYPDGTVVITKVRSSAGGSAGGSAGG [r11_961_JUSTAS]
[1]
  folding stability dG unfold: 0.607 ± 0.047 kcal/mol
[2]
  folding stability dG unfold: 0.164 ± 0.21 kcal/mol

## SAGGSAGGSAGGMPSSVVINLNLSKEEIEAIKKGKPVSPELKPAIEEAKKEGLKVEIKKSAGGSAGGSAGGS [r10_890_JUSTAS]
[1]
  folding stability dG unfold: 0.796 ± 0.037 kcal/mol
[2]
  folding stability dG unfold: 0.309 ± 0.13 kcal/mol

## SAGGSAGGSAGGMPVPRRLEIVVEPEYTEEEIEKIKKELIENGNPEIEEVVVVLPPNLESAGGSAGGSAGGS [r10_233_JUSTAS]
[1]
  folding stability dG unfold: 0.285 ± 0.04 kcal/mol
[2]
  folding stability dG unfold: -0.385 ± 0.36 kcal/mol

## SAGGSAGGSAGGMRITIDDWDPDEGPYRVKVTNPDNNKKKTMPYENLEELAKEGPVEIHRSAGGSAGGSAGG [r7_452_TrROS]
[1]
  folding stability dG unfold: 0.368 ± 0.18 kcal/mol
[2]
  folding stability dG unfold: -0.143 ± 0.13 kcal/mol

## SAGGSAGGSAGGMTITVPVEGVEEAIEKAKKEHPNTEIKITLLKPGGEKATTRTVKILGSAGGSAGGSAGGS [r10_741_JUSTAS]
[1]
  folding stability dG unfold: -0.403 ± 0.13 kcal/mol
[2]
  folding stability dG unfold: -0.951 ± 0.29 kcal/mol

## SAGGSAGGSAGGMTLTITDDDPSVGPRTFTLTEPGSSKTTTLTSAEMEALKAAGPVTVAGSAGGSAGGSAGG [r7_452_JUSTAS]
[1]
  folding stability dG unfold: 0.122 ± 0.22 kcal/mol
[2]
  folding stability dG unfold: -0.209 ± 0.23 kcal/mol

## SAGGSAGGSAGGMTTKYVITVEVPGENRTETIYLDVPPSRPEEAEALAKEISPNAKIERLSAGGSAGGSAGG [r11_250_JUSTAS]
[1]
  folding stability dG unfold: 0.187 ± 0.16 kcal/mol
[2]
  folding stability dG unfold: -0.144 ± 0.29 kcal/mol

## SAGGSAGGSAGGMTTLVLPAEVEPVPDGVRVRLPDGEDLYVPPGERVERTPDRVEVTLGSAGGSAGGSAGGS [r10_305_JUSTAS]
[1]
  folding stability dG unfold: 0.383 ± 0.058 kcal/mol
[2]
  folding stability dG unfold: -0.448 ± 0.25 kcal/mol

## SAGGSAGGSAGGMTVTVTVPPEKVEETIKKLGSKAKSVEREVLETPLGEKVAVVTVTLENSAGGSAGGSAGG [r7_904_JUSTAS]
[1]
  folding stability dG unfold: 0.647 ± 0.023 kcal/mol
[2]
  folding stability dG unfold: 0.047 ± 0.093 kcal/mol

## SAGGSAGGSAGGMVEVLPVPDGSTLERDPAGYVTRYDPATGTATTVPLADVELSPGSPELSAGGSAGGSAGG [r7_656_JUSTAS]
[1]
  folding stability dG unfold: 0.679 ± 0.11 kcal/mol
[2]
  folding stability dG unfold: -0.0715 ± 0.23 kcal/mol

## SAGGSAGGSAGGMVKKTYEKKKPPGSMEYVTEKEYDPKTNTVKTTTVPVSEYKNIPNKNSAGGSAGGSAGGS [r10_1077_JUSTAS]
[1]
  folding stability dG unfold: -0.0965 ± 0.56 kcal/mol
[2]
  folding stability dG unfold: < -1 kcal/mol

## SAGGSAGGSAGGNKIHIMMPYDWAEEFANELQQQGIDPDNVKIEVHPMEMPPPPPPGDKSAGGSAGGSAGGS [r10_602_TrROS]
[1]
  folding stability dG unfold: -0.0563 ± 0.11 kcal/mol
[2]
  folding stability dG unfold: < -1 kcal/mol

## SAGGSAGGSAGGPDVTTSDSVSLERLPDDTIVLRRTTTVTPPTGPPVVTSTTTVLPPSTLSAGGSAGGSAGG [r17_312_JUSTAS]
[1]
  folding stability dG unfold: -0.319 ± 0.41 kcal/mol
[2]
  folding stability dG unfold: < -1 kcal/mol

## SAGGSAGGSAGGPEIKPFDSLEEVVEEIKKNPNKERIYLLPDSVIYTLKEDKILKIEPLKSAGGSAGGSAGG [r7_532_TrMRF]
[1]
  folding stability dG unfold: -0.105 ± 0.47 kcal/mol
[2]
  folding stability dG unfold: < -1 kcal/mol

## SAGGSAGGSAGGPERELTVPITTPDGSGKSISAELGEEELEKLIEENPEWKEAIIEARRESAGGSAGGSAGG [r7_637_JUSTAS]
[1]
  folding stability dG unfold: 0.975 ± 0.059 kcal/mol
[2]
  folding stability dG unfold: 0.483 ± 0.11 kcal/mol

## SAGGSAGGSAGGPNWRIITHEIPIKDGEIEINLPEGIKPQSIERNPDDGYIKVSIVIPLSAGGSAGGSAGGS [r10_906_TrROS]
[1]
  folding stability dG unfold: -0.259 ± 0.14 kcal/mol
[2]
  folding stability dG unfold: -0.54 ± 0.15 kcal/mol

## SAGGSAGGSAGGPPIIEFPIKGDNPEQAKRFAKEVVDLLPDQNPENVDITTTDGWVRITSAGGSAGGSAGGS [r10_182_TrROS]
[1]
  folding stability dG unfold: -0.636 ± 0.67 kcal/mol
[2]
  folding stability dG unfold: < -1 kcal/mol

## SAGGSAGGSAGGPPNKKFILRIEHPGRPITFPFKSPKGLDEAADKFPDKFGMPPKIEVHPSAGGSAGGSAGG [r7_18_TrROS]
[1]
  folding stability dG unfold: -0.795 ± 0.92 kcal/mol
[2]
  folding stability dG unfold: < -1 kcal/mol

## SAGGSAGGSAGGPPTTARITLPDGRTYTVPVPVDPTTGTVYVEDIRRAVAPNYTFTIELGSAGGSAGGSAGG [r7_492_TrMRF]
[1]
  folding stability dG unfold: 0.981 ± 0.16 kcal/mol
[2]
  folding stability dG unfold: 0.414 ± 0.14 kcal/mol

## SAGGSAGGSAGGQPLLARPNDEPIVEVEISETTTLLPNGTVVTTYSVPKKGILTTVTLVSAGGSAGGSAGGS [r10_160_JUSTAS]
[1]
  folding stability dG unfold: -0.703 ± 0.29 kcal/mol
[2]
  folding stability dG unfold: < -1 kcal/mol

## SAGGSAGGSAGGRIRLRTELLVRREDGSLSRFRETAVFEVEARPRPVPAPRAYRDANGRLVSAGGSAGGSAG [r3_252_TrMRF]
[1]
  folding stability dG unfold: 0.264 ± 0.075 kcal/mol
[2]
  folding stability dG unfold: -0.558 ± 0.13 kcal/mol

## SAGGSAGGSAGGSDPSATLRVTLTPRTTRTRLVTDEDGVERTYTFGGDGTLSVSLLPSGSAGGSAGGSAGGS [r4_162_TrMRF]
[1]
  folding stability dG unfold: 0.647 ± 0.15 kcal/mol
[2]
  folding stability dG unfold: 0.258 ± 0.091 kcal/mol

## SAGGSAGGSAGGSKKKKKKPKKVLLVRNKKTKKLYVFKTKEEAKKAGFEIVKDGKIKKKSAGGSAGGSAGGS [r4_306_TrROS_Hall]
[1]
  folding stability dG unfold: 0.258 ± 0.55 kcal/mol
[2]
  folding stability dG unfold: 0.0938 ± 0.41 kcal/mol

## SAGGSAGGSAGGSKPDPEIEQERNPEKGYRTIKIEFPDKPRTIMVKNLPPDDPALRDAFSAGGSAGGSAGGS [r4_328_TrROS]
[1]
  folding stability dG unfold: -0.0426 ± 0.23 kcal/mol
[2]
  folding stability dG unfold: -0.349 ± 0.18 kcal/mol

## SAGGSAGGSAGGSKTKTISFPMPWDDIPELAEELKDKGPVTIEHQDPDGNPREFTIPPDSAGGSAGGSAGGS [r4_341_TrROS]
[1]
  folding stability dG unfold: 0.484 ± 0.13 kcal/mol
[2]
  folding stability dG unfold: 0.0258 ± 0.19 kcal/mol

## SAGGSAGGSAGGSKVNDVTAEKNFLVFTEDGRVLGKGEVERAFAAGAGPIGAVPLPPGASAGGSAGGSAGGS [r4_47_TrMRF]
[1]
  folding stability dG unfold: -0.54 ± 0.23 kcal/mol
[2]
  folding stability dG unfold: < -1 kcal/mol

## SAGGSAGGSAGGSKVPPGAKITVERHDGGYRTVEIRPPNGKPVEIMMPEDDADEIADQISAGGSAGGSAGGS [r4_16_TrROS]
[1]
  folding stability dG unfold: -1.26 ± 0.82 kcal/mol
[2]
  folding stability dG unfold: < -1 kcal/mol

## SAGGSAGGSAGGSMTVTETRYVGTDPATGVATTLSTYRDASGTPGLVTTYPGGAVTVALSAGGSAGGSAGGS [r4_35_JUSTAS]
[1]
  folding stability dG unfold: 0.0995 ± 0.26 kcal/mol
[2]
  folding stability dG unfold: -0.312 ± 0.28 kcal/mol

Reference: the supplement of paper PMC12764529
